Source: doi:10.1101/2025.02.16.638571 (bioRxiv, 2025)

T1: NiVM G head domain protein (residues 176-602) (Nipah virus, Malaysia strain (NiVM), UniProt Q9IH62 176-602)
T1 sequence: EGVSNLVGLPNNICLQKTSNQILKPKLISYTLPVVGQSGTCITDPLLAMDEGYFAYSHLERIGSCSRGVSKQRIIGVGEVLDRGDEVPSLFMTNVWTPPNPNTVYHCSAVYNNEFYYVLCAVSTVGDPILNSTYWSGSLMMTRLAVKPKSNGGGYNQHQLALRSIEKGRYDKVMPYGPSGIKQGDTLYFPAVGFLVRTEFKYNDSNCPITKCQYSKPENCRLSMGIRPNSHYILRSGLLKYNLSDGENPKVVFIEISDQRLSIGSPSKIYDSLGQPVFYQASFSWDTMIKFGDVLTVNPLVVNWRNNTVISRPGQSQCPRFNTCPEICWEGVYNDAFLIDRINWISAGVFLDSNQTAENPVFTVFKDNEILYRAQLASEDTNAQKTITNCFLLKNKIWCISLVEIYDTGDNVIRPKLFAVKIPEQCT


What was measured:
[1] = molecular target: T2, NiVM G head domain protein (residues 176-602) (Nipah virus, Malaysia strain (NiVM), UniProt Q9IH62); assay: BLI
[2] = molecular target: NiVM G ectodomain (residues 96-602) (Nipah virus, Malaysia strain, …, UniProt Q9IH62); assay: ELISA
[3] = molecular target: LayV G head domain (residues 176-625) (Langya virus, GenBank UUV47206.1, UniProt A0AAX3C924); assay: ELISA
[4] = molecular target: MojV G head domain (residues 176-625) (Mojiang virus, GenBank YP_009094095.1, UniProt W8TIR7); assay: ELISA
[5] = molecular target: T2, NiVM G head domain protein (residues …); assay: cryo-EM structure
[6] = molecular target: T1, NiVM G head domain protein (residues …); assay: BLI
[7] = molecular target: deglycosylated NiVM G head domain without the His-tag (residues 176-602) (Nipah virus, Malaysia strain, …, UniProt Q9IH62); assay: crystal structure

Binder | binding result [1] | binding result [2] | binding result [3] | binding result [4] | binding result [5] | further results
mAb S2B10 (antibody, V domains shown) VH: QMQLQESGPGLVKPSQSLSLTCTVTGYSITSDYAWNWIRQFPRNKLEWMGFITYSGSTSYNPSLKSRISLTRDTSKNQFFLQLSSVTTEDTATYYCARSGANWDWFAYWGQGTLVTVSA VL: DIQMTQSPASLAVSLGQRATISCRASESVDNYGNSFMHWYQQKPGQPPKLLIYRASKLESGIPARFSGSGSRTDFTLTINPVEADDVATYHCQQSNEDPWTFGGGTKLEIK | binds | binds | no binding (tested: 1 μg/mL) | no binding (tested: 1 μg/mL) |  | 
S2B10 Fab (Fab, V domains shown) VH: QMQLQESGPGLVKPSQSLSLTCTVTGYSITSDYAWNWIRQFPRNKLEWMGFITYSGSTSYNPSLKSRISLTRDTSKNQFFLQLSSVTTEDTATYYCARSGANWDWFAYWGQGTLVTVSA VL: DIQMTQSPASLAVSLGQRATISCRASESVDNYGNSFMHWYQQKPGQPPKLLIYRASKLESGIPARFSGSGSRTDFTLTINPVEADDVATYHCQQSNEDPWTFGGGTKLEIK |  |  |  |  | binds | 
human ephrin-B2 (residues 27-167) (receptor) SIVLEPIYWNSSNSKFLPGQGLVLYPQIGDKLDIICPKVDSKTVGQYEYYKVYMVDKDQADRCTIKKENTPLLNCAKPDQDIKFTIKFQEFSPNLWGLEFQKNKDYYIISTSNGSLEGLDNQEGGVCQTRAMKILMKVGQD |  |  |  |  |  | binding result [6]: binds
mAb S1E2 (antibody, V domains shown) VH: QMQLQESGPGLVKPSQSLSLTCSVTGYSITSGYYWNWIRQFSGNKLEWMGYINHDGSKNYNPSLKNRISITRDTSKNQFFLKLNSVTTEDTATYYCARDYGSYYYPMDYWGQGTSVTVSS VL: EIVLTQSPPIMSASPGEKVTITCSASSSVTFMHWFQQKPGTSPKLWIFSTSNLASGVPARFSGSGSGTSYSLTISRMEAEDAATYYCQQRSSYPFTFGSGTKLEIK | binds | binds | no binding (tested: 1 μg/mL) | no binding (tested: 1 μg/mL) |  | 
S1E2 Fab (Fab, V domains shown) VH: QMQLQESGPGLVKPSQSLSLTCSVTGYSITSGYYWNWIRQFSGNKLEWMGYINHDGSKNYNPSLKNRISITRDTSKNQFFLKLNSVTTEDTATYYCARDYGSYYYPMDYWGQGTSVTVSS VL: EIVLTQSPPIMSASPGEKVTITCSASSSVTFMHWFQQKPGTSPKLWIFSTSNLASGVPARFSGSGSGTSYSLTISRMEAEDAATYYCQQRSSYPFTFGSGTKLEIK |  |  |  |  | binds | 
LN1F9 Fab (Fab, V domains shown) VH: EVKLVESGGGLVKPGGSLKLSCAASGFSFRNYAMSWVRQSPEKRLEWVAEVSSGGGYTYYPDTVTGRFTISRDNAKNILYLEMSSLRSEDTAMYYCTRDPDSSGYLAWFAYWGQGTLVTVSA VL: DILLTQSPASLSASVGETVTITCRASENINSYLAWYQQKQGKSPQLLVYNAKTLAEGVPSRFSGSGSDTQFSLKINTLQPEDFGTYYCQHHSGTPYTFGGGTKLEIK |  |  |  |  |  | binding result [7]: binds
mAb LN1F9 (antibody, V domains shown) VH: EVKLVESGGGLVKPGGSLKLSCAASGFSFRNYAMSWVRQSPEKRLEWVAEVSSGGGYTYYPDTVTGRFTISRDNAKNILYLEMSSLRSEDTAMYYCTRDPDSSGYLAWFAYWGQGTLVTVSA VL: DILLTQSPASLSASVGETVTITCRASENINSYLAWYQQKQGKSPQLLVYNAKTLAEGVPSRFSGSGSDTQFSLKINTLQPEDFGTYYCQHHSGTPYTFGGGTKLEIK | binds | binds | no binding (tested: 1 μg/mL) | no binding (tested: 1 μg/mL) |  | 
LN3D3 Fab (Fab, V domains shown) VH: EVKLEESGPELVKPGASVKMSCKASGYTFTNYVMHWVKQKPGQGLEWIGYVNPYNDGTQYNEKFRDKATLTSDKSSSTVYMELNSLTSEDSAVYYCTRGDYPYWVFEVWGAGTTVTVSS VL: EIQMTQSPATLSVTPGDSVSLSCRASQSISNNLHWYQQKSHESPRLLIKYASQSISGIPSRFSGSGSGTDFTLSINNLETEDFGMYFCQHSDSWPFTFGSGTKLEIK |  |  |  |  | binds | 
mAb LN3D3 (antibody, V domains shown) VH: EVKLEESGPELVKPGASVKMSCKASGYTFTNYVMHWVKQKPGQGLEWIGYVNPYNDGTQYNEKFRDKATLTSDKSSSTVYMELNSLTSEDSAVYYCTRGDYPYWVFEVWGAGTTVTVSS VL: EIQMTQSPATLSVTPGDSVSLSCRASQSISNNLHWYQQKSHESPRLLIKYASQSISGIPSRFSGSGSGTDFTLSINNLETEDFGMYFCQHSDSWPFTFGSGTKLEIK | binds | binds | no binding (tested: 1 μg/mL) | no binding (tested: 1 μg/mL) |  | 
